{"source": "patent US12173292B2", "about": "“Controlling bacterial biofilms” (LANXESS Corporation, priority 2019, dated 2024)", "molecules": {"B1": {"name": "DVU2962: D. vulgaris Hildenborough protein, 577 aa, SEQ ID NO:8, expressed from pVLT33-Pdvu0304-dvu2962 (protein)", "chain": "MKNPLGTMLSRLRSVFDVPDEIAPERYRMLRRKITLLMTAVSVLPLLILTAVSYHQYQSTLTREIVTPVRALVNKTRHSFELFLAERSSTVSLLAKTYSMAELSDEKNLNRIFLALKGEFPGFVDLGVIDGRGVQVGYVGPYDVRGKNYSEADWYNRTRVKGVYISDVFMGFRRFPHIAIAVQRMNPDGSSWMLRATIETTQFDRLIASMGLDPESDAFLINTAGVLQTNSRFYGNVLDVMPMPVPHLSYEPSIIDTEDPEGRQIFLSSAFLQNADFAIVAVKPKTEILRPWTSLRSDLLIFVAFSVALIISAAFGFTDMLVRRMRDSDERRIAAFVQIEHTQKLSSIGRLAAGVAHEINNPLAIINEKAGLAADLIALSQDFPQKERFSAIVEAISRSVDRCRSITHRLLGFSRRMDATYEQLDVNGILKETMSFLEQEAVHRSITIGTSLDAGLPRITSDRGQLQQVFLNIINNAFAAVQDGGSVTLTTFAADGGMVGVSIQDNGKGMSEEVQRHIFEPFFTTKKTAGTGLGMFITYGIIKRLGGEIGINSREGVGTTVTVYLPQDAPAPQSLEN", "modifications": "Desulfovibrio vulgaris Hildenborough"}, "B2": {"name": "DVU2956: D. vulgaris Hildenborough sigma 54-dependent enhancer-binding protein, 345 aa, SEQ ID NO:2, expressed in the bacteria from plasmids (protein)", "chain": "MSGKKLPHSGNSLPIEGTVSPQRETLQNGTDFLLLSGVMQRLRVLASQVASSDAPVLIHGETGTGKELFARLIHDMGIRAKKPFVAVNCGVHEGELFADKFFGHEQGAFTGAHRMSQGCFELASEGTLFLDEVGEIPGANQADFLRVLEEKRFRRIGGQRDIPFQARIVAASNRDLQEMVGQGQFRADLFYRLNVIPVVLPPLRARKEEVVPLARHFLTHYGDKYHRPGVRFAPETEQALAAYQWPGNVRELKNLVERIALLAPEGVLGPEHLPLELRSAAAVEVGVPHEVPEDLSLDRARREAEVRVILKAMRATGGNKGEAARLLGVSPRTLRYKFAEYALRF", "modifications": "Desulfovibrio vulgaris Hildenborough"}, "B3": {"name": "DVU2960: D. vulgaris Hildenborough protein, 474 aa, SEQ ID NO:4, expressed from pVLT33-Pdvu0304-dvu2960 (protein)", "chain": "MKQASLPAGARIAGLVGRELALGPVFDAIPTGLAVLDADLRICLMNRALETMTGFTTAEVAGIPCRHVLRASVCLHRCPTRTAVCDATGGNAPCHAQEGDLLNRHRRRIPVRLTLAPLHDAQGQLCGWLHTAEDLSLVRELEERCSKGQASGPLVGRSVVMEELFRTVQALAQTETPVLITGETGTGKDAVAETIHKASPRGREPFVKASLSSLPDFLVESELFGHRKGAFPGAEEDKPGRFRMAQGGTLCLSELGDLPPAMQGRLVTFLDEGLVWPVGATDPVRCDVRLLVASNLDLEAMVASGRLREDLYSRLAAVRIHLPPLRERGEDLEFLLSHYLAHFAARLRKTIHGFSGKSLRVLLAYGFPGNVRELKNIVEYAATLCTGEVVMPSHLPAYLFHTRPAAAPPRAIERDTPKGAAEDEASARSSVVDLERRLIVDALARAGNRKGEAARILGWGRSTLWRKMKQFGLE", "modifications": "Desulfovibrio vulgaris Hildenborough"}, "B4": {"name": "DVU2964: D. vulgaris Hildenborough protein, 219 aa, SEQ ID NO:10, expressed from pVLT33-Pdvu0304-dvu2964 (protein)", "chain": "MRENACVGCLTASASHELQNALAVIRESAGLMQDLIALGGENIPRRERIVELLSLIQQQVARGGELAGGLNTLGHAWEEDDGDLARILEEFVILAGRMGRMRSVTVGLAPGESGLRAPSAGLALRVLLFDLLQTCLEEAPGCALTFAPARRDGIPGIHLRVGLARCDATTDVLRRLDAQLARLGARKEPDNGHGTPARDEPDGVLYYFTACPSATGHRA", "modifications": "Desulfovibrio vulgaris Hildenborough"}}, "key": {"D. vulgaris biofilm": {"tested_on": "D. vulgaris biofilm", "test": "Biofilm formation assay, crystal violet staining, 96-well plates", "assay_type": "cell-based, Desulfovibrio vulgaris Hildenborough", "description": "(§1) D. vulgaris, D. desulfuricans and plasmid-transformed strains of both of these bacteria were grown anaerobically in Modified Baar's medium (300 μL) in 96-well micro-titer plates (Fisher Scientific, cat no. 07-200-656) for 24 hours at 30° C. without shaking, after which time the planktonic cell turbidity in each well was measured spectrophotometrically at 620 nm using a Sunrise™ microplate reader (TECAN, Switzerland). The plates were then incubated under the same conditions for an additional 24 to 48 hours, after which biofilm formation was measured by crystal violet staining. For biofilm dispersal assays, 24 hours after seeding the plates for biofilm growth, arabinose (10 mM) was added to strains harboring plasmids allowing arabinose-based induction of DVU2956 (SEQ ID NO:2). The arabinose-treated strains were then incubated anaerobically for another 24 hours without shaking, after which time biofilm formation was measured by crystal violet staining.\nFor crystal violet staining, the liquid portion of the cultures was discarded and the wells were washed by dipping the plates into 1 L of distilled water, after which the plates were dried with paper towel. Crystal violet (0.1%, 300 μL) was added to each well and the plates were incubated for 20 minutes at room temperature. After discarding the bulk of the staining solution, the wells were washed three times with distilled water as above to remove unbound crystal violet. The wells were then soaked for 5 minutes in 95% ethanol (300 μL) to dissolve the remaining (bound) crystal violet, which was then measured spectrophotometrically at 540 nm using the Sunrise™ microplate reader. Normalized biofilm formation percentage values were calculated based on the ratio of […] to compare the degree of biofilm formation or dispersal."}, "D. desulfuricans biofilm": {"tested_on": "D. desulfuricans biofilm", "test": "Biofilm formation assay, crystal violet staining, 96-well plates", "assay_type": "cell-based, Desulfovibrio desulfuricans (DSM 12129)", "settings": "at 24 hours; D. desulfuricans/pVLT33-Pdvu0304-dvu2956 vs D. desulfuricans/pVLT33-Pdvu0304", "description": "as §1\n(§2) For crystal violet staining, the liquid portion of the cultures was discarded and the wells were washed by dipping the plates into 1 L of distilled water, after which the plates were dried with paper towel. […] The wells were then soaked for 5 minutes in 95% ethanol (300 μL) to dissolve the remaining (bound) crystal violet, which was then measured spectrophotometrically at 540 nm using the Sunrise™ microplate reader. […]"}, "[1]": {"tested_on": "D. vulgaris biofilm cells", "test": "Hydrogen sulfide production assay (methylene blue spectrophotometric)", "assay_type": "cell-based, Desulfovibrio vulgaris Hildenborough", "description": "Hydrogen sulfide (H2S) by D. vulgaris strains was measured via a methylene blue spectrophotometric assay (Rabinowitz, 1978, Methods Enzymol. 53:275-277; incorporated herein by reference). Briefly, in this assay, N,N-dimethyl-p-phenylenediamine dihydrochloride is converted into methylthioninium chloride (methylene blue) by reacting with H2S dissolved in hydrochloride acid in the presence of ferric chloride. For a 96-well screening format, D. vulgaris was anaerobically grown in Modified Baar's medium in a 96-well plate (starting turbidity/OD of 0.05 at 600 nm, 150-μL culture volume) and incubated for 48 hours for biofilm formation. Anaerobically, 25 μL of each biofilm culture was transferred to another 96-well plate containing 225 μL deoxygenated water per well to render a 10-fold dilution of the transferred culture. Next, 5% N,N-dimethyl-p-phenylenediamine dihydrochloride (24.5 μL, prepared in 5.5 N HCl) (Sigma-Aldrich, cat. no. 536-46-9) was added to each well. After mixing the wells gently by pipetting and anaerobically incubating the mixes at room temperature for 3 minutes, the 96-well plate was removed from the anaerobic chamber and the absorbance at 670 nm of each well was measured using a Sunrise™ microplate reader.\nFor a more rigorous H2S assay, sealed glass vials were used to prevent H2S loss. D. vulgaris strains were grown anaerobically for 7 to 10 days in 10 mL of Modified Baar's medium with 2.5 g of sterilized glass wool to promote biofilm formation. Supernatants from these cultures were transferred by syringe to another sealed vial for dilution with 10 mL of PBS buffer. Anaerobically, 1 mL of diluted sample was then transferred by syringe to another sealed bottle with 125 μL of 12% sodium hydroxide and 3.25 mL of 1% zinc acetate (to fix the sulfide from H2S by forming ZnS precipitates). […] Water (2.125 mL) was added and mixed, and then at least 1 mL of each reaction was removed to determine absorbance at 670 nm."}, "[2]": {"tested_on": "Pdvu2956 (dvu2956 gene regulatory sequence)", "test": "Pdvu2956-mNeonGreen reporter fluorescence assay", "assay_type": "cell-based, E. coli BL21(DE3)", "settings": "ectopic expression induced by 1 mM IPTG for 90 minutes; E. coli/pMQ70-Pdvu2956-mNeonGreen/pET27b-dvu2956; excitation 425 nm, emission 517 nm", "excerpt": "A D. vulgaris dvu2956 gene regulatory sequence (SEQ ID NO:12), which comprises (in 5′ to 3′ direction) predicted promoter (SEQ ID NO:13) and 5′-untranslated region (5′-UTR) sequences (SEQ ID NO:14), was linked upstream of a synthetic ribosome binding site (RBS, SEQ ID NO:15) and a codon-optimized nucleotide sequence (SEQ ID NO:16) encoding a monomeric yellow-green fluorescent protein (mNeonGreen™, GenBank® Accession No. KC295282). This nucleotide sequence (provided as SEQ ID NO:17) was constructed in E. coli TG1 to render plasmid construct pMQ70-Pdvu2956-mNeonGreen (8164 bp) and then transferred into D. vulgaris (wild type) and E. coli strain BL21(DE3), the latter of which was already transformed with plasmid pET27b-dvu2956 (pET27b-dvu2956 allows for IPTG-induced expression of ectopic DVU2956 [SEQ ID NO:2]). PCR analyses confirmed the presence of plasmids pMQ70-Pdvu2956-mNeonGreen (in both strains) and pET27b-dvu2956 (in E. coli). Additional D. vulgaris and E. coli strains that were transformed with plasmid pMQ70 were prepared, and served as negative controls in the fluorescence assays described below.\nA similar analysis was conducted to test whether Pdvu2956 can heterologously drive gene expression in bacteria other than sulfate-reducing bacteria. […]"}, "[3]": {"tested_on": "established D. vulgaris biofilms", "test": "Biofilm dispersal assay, arabinose induction, crystal violet staining", "assay_type": "cell-based, Desulfovibrio vulgaris Hildenborough", "settings": "after 24 hours; expression from inducible promoter PBAD on pMQ70; vs D. vulgaris/pMQ70", "description": "as §1, §2"}, "[4]": {"settings": "at 48 hours, biofilm-specific expression from pVLT33-Pdvu0304-based construct in D. vulgaris, vs wild type and D. vulgaris/pVLT33-Pdvu0304"}}, "data": [{"molecule": "B1", "values": [{"measurement": "inhibition of biofilm formation", "setting": "D. vulgaris biofilm; [4]", "result": 90, "unit": "%"}]}, {"molecule": "B2", "values": [{"measurement": "inhibition of biofilm formation", "setting": "D. desulfuricans biofilm", "result": "78±9", "unit": "%"}, {"measurement": "decrease of H2S production", "setting": "[1]; 96-well culture, D. vulgaris/pVLT33-Pdvu0304-dvu2956 vs D. vulgaris/pVLT33-Pdvu0304", "result": "51±2", "unit": "%"}, {"measurement": "decrease of H2S production", "setting": "[1]; D. vulgaris (dvu2956-)/pMQ70-Pdvu2956-dvu2956 vs D. vulgaris (dvu2956-)/pMQ70-Pdvu2956", "result": "45±13", "unit": "%"}, {"measurement": "inhibition of H2S production", "setting": "[1]; sealed vials, biofilm-specific expression", "result": "34.6±0.6", "unit": "%"}, {"measurement": "higher fluorescence signal vs negative control", "setting": "[2]", "result": "~14", "unit": "fold"}, {"measurement": "inhibition of biofilm formation", "setting": "D. vulgaris biofilm; at 24 hours, D. vulgaris (dvu2956-) complemented with pMQ70-Pdvu2956-dvu2956, vs D. vulgaris (dvu2956-)/pMQ70-Pdvu2956", "result": "48±11", "unit": "%"}, {"measurement": "dispersal of established biofilms", "setting": "[3]", "result": "42±4", "unit": "%"}]}, {"molecule": "B3", "values": [{"measurement": "inhibition of biofilm formation", "setting": "D. vulgaris biofilm; [4]", "result": 95, "unit": "%"}]}, {"molecule": "B4", "values": [{"measurement": "inhibition of biofilm formation", "setting": "D. vulgaris biofilm; [4]", "result": 45, "unit": "%"}]}]}
